From patent publication US20230295310A1 (ABCELLERA BIOLOGICS, published 2023) come the findings set out here.

Numbering of substitutions follows the chain as printed.

For the assay, the target named is human EGFR, C-terminal eGFP-tagged, on CHO-K1 cells (human, UniProt P00533 25-1210). The assay is described as follows: cell-based or functional assay.

B1: GOMP001_bsAb_017 (bispecific antibody, human IgG1, kappa, L234A L235A)
heavy 1: QVQLVQSGAEVKKPGASVKVSCKASGYTFTSHWMHWVRKAPGQGLEWIGEFNPSNGRTNYNEEFKSKATMTVDTSTNTAYMELSSLRSEDTAVYYCASRDYDYDGRYFDYWGQGTLVTVSSASTKGPSVFPLAPSSKSTSGGTAALGCLVADYFPEPVTVSWNSGALTSGVHTFPAVLQSSGLYSLSSVVTVPSSSLGTQTYICNVNHKPSNTKVDEKVEPKSCDKTHTCPPCPAPEAAGGPSVFLFPPKPKDTLMISRTPEVTCVVVDVSHEDPEVKFNWYVDGVEVHNAKTKPREEQYNSTYRVVSVLTVLHQDWLNGKEYKCKVSNKALPAPIEKTISKAKGQPREPQVYTLPPSREEMTDNQVSLTCLVKGFYPSDIAVEWESNGQPENNYKTTPPVLMSDGSFFLASKLTVDKSRWQQGNVFSCSVMHEALHNHYTQKSLSLSPG
light 1: RIQMTQSPSSLSASVGDRVTITCSASSSVTYMYWYQDKPGKAPKLLIYDTSNLASGVPSRFSGSGSGTDYTFTISSLQPEDIATYYCQQWSSHIFTFGQGTKVEIKRTVAAPSVFIFPPSDKQLKSGTARVVCLLNNFYPREAKVQWKVDNALQSGNSQESVTEQDSKDSTYSLSSTLTLSKADYEKHKVYACEVTHQGLSSPVTKSFNRGEC
heavy 2: EVQLVESGGDLVQPGRSLRLSCAASGFTFDDCVIHWVRYAPGKGLEWVSGITWNSGRIGYADRVKGRFTISRDNAKNSLYLQMNSLRVEDTALYYCAKEGNYDFWSTYYRGYFDLWGRGTLVTVSSASTKGPSVFPLAPSSKSTSGGTAALGCLVKDYFPEPVTVSWNSGALTSGVHTFPAVLQSSGLYSLSSVVTVPSSSLGTQTYICNVNHKPSNTKVDKKVEPKSCDKTHTCPPCPAPEAAGGPSVFLFPPKPKDTLMISRTPEVTCVVVDVSHEDPEVKFNWYVDGVEVHNAKTKPREEQYNSTYRVVSVLTVLHQDWLNGKEYKCKVSNKALPAPIEKTISKAKGQPRRPRVYTLPPSREEMTKNQVSLVCLVKGFYPSDIAVEWESNGQPENNYKTTPPVLDSDGSFFLYSVLTVDKSRWQQGNVFSCSVMHEALHNHYTQKSLSLSPG
light 2: DIQMTQSPSSLSASVGDRVTITCRASQGIRNDLGWYQRKPGDAPKRLIYAASSLQGGVPLRFSGSGSGTEFTLTISSLQPEDFATYYCLQHNSYPYTFGQGTKLEIKRTVAAPSVFIFPPSDEQLKSGTASVVCLLNNFYPREAKVQWKVDNALQSGNSQESVTEQDSKDSTYSLSSTLTLSKADYEKHKVYACEVTHQGLSSPVTKSFNRGEC
Turning to B1, the “EC50 CHO-K1 EGFR Low (nM); T cell activation bioassay, luciferase” value (“EC50 CHO-K1 EGFR Low (nM)” below) worked out at 0.945 nM and the “EC50 CHO-K1 EGFR Med (nM); T cell activation bioassay, luciferase” value (from here on “EC50 CHO-K1 EGFR Med (nM)”) is 0.102 nM.

B2: GOMP001_bsAb_019 (bispecific antibody, human IgG1, kappa, L234A L235A)
heavy 1: B1 heavy 1
light 1: B1 light 1
heavy 2: EVQLVDSGGGLVQPGGSLRLSCSGSGFTFSSYWMSWVRYAPGKGLEWVANIKQDGSQKYYVDRVKGRFTISRDNVKNSLYLQMNSLRVEDTAVYYCARDESSSWYWYFDLWGRGTLVTVSSASTKGPSVFPLAPSSKSTSGGTAALGCLVKDYFPEPVTVSWNSGALTSGVHTFPAVLQSSGLYSLSSVVTVPSSSLGTQTYICNVNHKPSNTKVDKKVEPKSCDKTHTCPPCPAPEAAGGPSVFLFPPKPKDTLMISRTPEVTCVVVDVSHEDPEVKFNWYVDGVEVHNAKTKPREEQYNSTYRVVSVLTVLHQDWLNGKEYKCKVSNKALPAPIEKTISKAKGQPRRPRVYTLPPSREEMTKNQVSLVCLVKGFYPSDIAVEWESNGQPENNYKTTPPVLDSDGSFFLYSVLTVDKSRWQQGNVFSCSVMHEALHNHYTQKSLSLSPG
light 2: DIQMTQSPSTLSASVGDRVTLTCRASQNIVKWLAWYQRKPGDAPKLLIYKASSLESGVPSWFSGSGSGTEFTLTINSLQPDDFATYYCQQYYTYSRTFGQGTKVEIKRTVAAPSVFIFPPSDEQLKSGTASVVCLLNNFYPREAKVQWKVDNALQSGNSQESVTEQDSKDSTYSLSSTLTLSKADYEKHKVYACEVTHQGLSSPVTKSFNRGEC
As to B2, the “EC50 CHO-K1 EGFR Low (nM)” value is 4.27 nM and the “EC50 CHO-K1 EGFR Med (nM)” value is 0.257 nM.

B3: GOMP001_bsAb_020 (bispecific antibody, human IgG1, kappa, L234A L235A)
heavy 1: B2 heavy 2
light 1: B2 light 2
heavy 2: QVQLVQSGAEVKKPGASVKVSCKASGYTFTSHWMHWVRYAPGQGLEWIGEFNPSNGRTNYNEKFKSKATMTVDTSTNTAYMELSSLRSEDTAVYYCASRDYDYDGRYFDYWGRGTLVTVSSASTKGPSVFPLAPSSKSTSGGTAALGCLVKDYFPEPVTVSWNSGALTSGVHTFPAVLQSSGLYSLSSVVTVPSSSLGTQTYICNVNHKPSNTKVDKKVEPKSCDKTHTCPPCPAPEAAGGPSVFLFPPKPKDTLMISRTPEVTCVVVDVSHEDPEVKFNWYVDGVEVHNAKTKPREEQYNSTYRVVSVLTVLHQDWLNGKEYKCKVSNKALPAPIEKTISKAKGQPRRPRVYTLPPSREEMTKNQVSLVCLVKGFYPSDIAVEWESNGQPENNYKTTPPVLDSDGSFFLYSVLTVDKSRWQQGNVFSCSVMHEALHNHYTQKSLSLSPG
light 2: B1 light 1 with R1D, D37R, K41D, K122E, R130S
In the case of B3, the “EC50 CHO-K1 EGFR Low (nM)” value came out at 0.235 nM and the “EC50 CHO-K1 EGFR Med (nM)” value was 0.0102 nM.

B4: GOMP001_bsAb_024 (bispecific antibody, human IgG1, kappa, L234A L235A)
heavy 1: QGQLVESGGGVVQPGRSLRLSCEASGFTFRSYGMHWVRYPPGKGLEWVAIIWYDGGKKYYGDRVKGRFTISRDNPKNTLYLQMNSLRPEDTAVYYCMAYDYSNGFDIWGRGTMVTVSSASTKGPSVFPLAPSSKSTSGGTAALGCLVKDYFPEPVTVSWNSGALTSGVHTFPAVLQSSGLYSLSSVVTVPSSSLGTQTYICNVNHKPSNTKVDKKVEPKSCDKTHTCPPCPAPEAAGGPSVFLFPPKPKDTLMISRTPEVTCVVVDVSHEDPEVKFNWYVDGVEVHNAKTKPREEQYNSTYRVVSVLTVLHQDWLNGKEYKCKVSNKALPAPIEKTISKAKGQPRRPRVYTLPPSREEMTKNQVSLVCLVKGFYPSDIAVEWESNGQPENNYKTTPPVLDSDGSFFLYSVLTVDKSRWQQGNVFSCSVMHEALHNHYTQKSLSLSPG
light 1: DIVMTQTPLSSPVTLGQPASISCRSSQSFVHSDGSTYLSWLQRRPGDPPRLLIYKISNRFSGVPDRFSGRGAGTDFTLKISRVEAEDVGIYYCMQNTQFPYTFGQGTKLEIKRTVAAPSVFIFPPSDEQLKSGTASVVCLLNNFYPREAKVQWKVDNALQSGNSQESVTEQDSKDSTYSLSSTLTLSKADYEKHKVYACEVTHQGLSSPVTKSFNRGEC
heavy 2: B3 heavy 2
light 2: B1 light 1 with R1D, D37R, K41D, K122E, R130S
For B4, the “EC50 CHO-K1 EGFR Low (nM)” value worked out at 0.245 nM and the “EC50 CHO-K1 EGFR Med (nM)” value is 0.122 nM.

B5: GOMP001_bsAb_023 (bispecific antibody, human IgG1, kappa, L234A L235A)
heavy 1: B1 heavy 1
light 1: B1 light 1
heavy 2: B4 heavy 1
light 2: B4 light 1
B5: the “EC50 CHO-K1 EGFR Low (nM)” value worked out at 8.34 nM and the “EC50 CHO-K1 EGFR Med (nM)” value was determined as 1.71 nM.

B6: GOMP001_bsAb_018 (bispecific antibody, human IgG1, kappa, L234A L235A)
heavy 1: B1 heavy 2
light 1: B1 light 2
heavy 2: B3 heavy 2
light 2: B1 light 1 with R1D, D37R, K41D, K122E, R130S
B6: the “EC50 CHO-K1 EGFR Low (nM)” value came to 0.377 nM and the “EC50 CHO-K1 EGFR Med (nM)” value was found to be 0.0442 nM.
